Data from US20100313308.
Where a chain is given by its changes, count along the chain named.

B1: GST-UBP15 (protein)
chain: MLEPRGADIPILFLVLVVLPVVAYILLGKWSNISEKRVRANLLAQMAAEEALRAETVVNADRGVRFESVATENRAQRTRTKTVSAGGGAVRAEFDAGARETVAEQRSDSVTATCGVTVVAPVNNNELHVCARCFGPAKTRCSRCKSVRYCSGKCQIIHWRVAHKDECVPVESCSSSSERVSFEKDSVLYDHGMDSTMYSNNTTQAAKGKTSKSSVDFASLGISQNDITPQINTQGRKSVGKQHSSKANRESCRRDSATVFDSSDEAASAGGDNKTSHIKHKSRGNSYAAETNPRRHSVDSSAVQMNGQSFVSGMQESHKHENNLGVRSSFGCPNTQYPSNGTRTATLPRTGINKSGEQSCTETSKKGQVAAVSKTVRSKDTGISEESNGISSTMGIMKMMGLRNSTKHDDRYKNLKMLFPYEEFLKFFQCEVFDLSPRGLVNCGNSCYANAVLQSLTCTKPLVAYLLRRSHSRSCSGKDWCLMCELEQHVMMLRESGGPLSASRILSHMRSINCQIGDGSQEDAHEFLRLLVASMQSICLERLGGETKVDPRLQETTLVQHMFGGRLRSKVKCLRCDHESERYENIMDLTLEIYGWVESLQDALTQFTRPEDLDGENMYRCSRCAGYVRARKELSIHEAPNILTIVLKRFQEGRYGKINKCISFPEMLDMIPFMTRTGDVPPLYMLYAVIVHLDTLNASFSGHYISYVKDLRGNWYRIDDSEIHPVPMTQVMSEGAYMLFYMRSYPRPQRGEHNGKAPVHHSQPRNEMKEQRKPVNRFKPRADHKNTESSSSEWSLFTSSDEASFTTESTRDSFSTIDYTDVCHVVDSSSPFAIFNNVYHNVEPSPHNTVACRMFSGTKPETRYFVEQETNHNNTVVLDATPSLYPIPAPYPPHDYYDQSMYVNYETNPEFNNGQDQDRTYSYW
B2: GST-UBP15C447A (protein)
chain: B1 chain with C447A
B3: GST-UBP15C447S (protein)
chain: B1 chain with C447S

Columns and labels:
[1] = target: his-tagged polyubiquitin UBQ10 (hexameric polyubiquitin), Q8H159
his-tagged polyubiquitin UBQ10 (hexameric polyubiquitin), Q8H159, sequence (Q8H159 whole entry, looked up): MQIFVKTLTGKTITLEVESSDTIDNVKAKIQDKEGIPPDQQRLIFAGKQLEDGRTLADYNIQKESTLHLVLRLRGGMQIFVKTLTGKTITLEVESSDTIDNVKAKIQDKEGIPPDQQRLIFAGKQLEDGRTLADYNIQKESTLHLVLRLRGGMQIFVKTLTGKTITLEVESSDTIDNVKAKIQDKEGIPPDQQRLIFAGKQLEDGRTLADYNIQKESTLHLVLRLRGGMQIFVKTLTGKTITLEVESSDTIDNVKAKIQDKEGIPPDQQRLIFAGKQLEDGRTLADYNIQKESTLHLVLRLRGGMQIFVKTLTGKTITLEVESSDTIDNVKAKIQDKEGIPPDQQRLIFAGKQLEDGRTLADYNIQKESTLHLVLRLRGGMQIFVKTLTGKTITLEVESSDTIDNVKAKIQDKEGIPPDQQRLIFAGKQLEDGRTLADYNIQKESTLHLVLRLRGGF

[2] = target: his-tagged ubiquitin-extension protein UBQ1
[3] = target: multiubiquitin chain linked by iso-peptide

Protein | in vitro DUB activity assay (co-expression in E. coli, immunoblot with anti-ubiquitin antibody) [1] | in vitro DUB activity assay (co-expression in E. coli, immunoblot with anti-ubiquitin antibody) [2] | in vitro DUB activity assay (data not shown) [3]
B1 | UBP15 can cleave substrate UBQ10 (hexameric polyubiquitin) | UBP15 can cleave substrate UBQ1 (ubiquitin-extension protein) | UBP15 can only cleave a-linked peptide (polyubiquitin and ubiquitin-extension gene) (FIG. 5A), not c-linked isopeptide (multiubiquitin chain linked by iso-peptide) (data not shown)
B2 | Cysteine^447 is essential for this DUB activity | Cysteine^447 is essential for this DUB activity | –
B3 | Cysteine^447 is essential for this DUB activity | Cysteine^447 is essential for this DUB activity | –
